Substitutions are numbered along the chain they refer to.

The values below come from the PETadex activity labels (doi:10.1038/s41467-023-40233-w).

The labels stand for the following.
B1: unnamed (protein)
chain: MLSFLRSTGRPERRRASLPALLLFTAALVASGLTAAPAAQAADNPYQRGPDPTNASIEAATGPFAVGTQPIVGASGFGGGQIYYPTDTSQTYGAVVIVPGFISVWAQLNWLGPRLASQGFVVIGIETSVITDLPDPRGDQALAALDWATTRSPVASRIDRTRLAAAGWSMGGGGLRRAACQRPSLKAIVGMAPWNGERNWSCVTVPTLFFGGSSDAVASPNDHAKPFYNSITRAEKDYIELCNADHFFPTSANTTMAKYFISWLKRWVDNDTRYTQFLCPGPSTGLFAPVCASMNTCPF
B2: unnamed (protein)
chain: B1 chain with L133Y, C180L, C202A, C242R, C291S
B3: unnamed (protein)
chain: B1 chain with G76C, A143C, C180L, C202A, C242R, C291S
B4: unnamed (protein)
chain: B1 chain with Q107S, C180L, C202A, C242R, C291S
B5: unnamed (protein)
chain: B1 chain with P136S, C180L, C202A, C242R, C291S
B6: unnamed (protein)
chain: B1 chain with N109A, V129T, A155R, R198K
B7: unnamed (protein)
chain: B1 chain with C180L, G196L, C202A, C242R, C291S
B8: unnamed (protein)
chain: B1 chain with C180L, C202A, C242R, T250N, C291S
B9: unnamed (protein)
chain: B1 chain with R160A, C180L, C202A, C242R, C291S
B10: unnamed (protein)
chain: B1 chain with I102T, C180L, C202A, C242R, C291S
B11: unnamed (protein)
chain: B1 chain with L133Q, C180L, C202A, C242R, C291S
B12: unnamed (protein)
chain: B1 chain with N109A
B13: unnamed (protein)
chain: B1 chain with C180L, C202A, C242R, A252N, C291S
B14: unnamed (protein)
chain: B1 chain with C180L, C202A, T204C, R233C, C242R, C291S
B15: unnamed (protein)
chain: B1 chain with C180L, C202A, R233A, C242R, C291S
B16: unnamed (protein)
chain: B1 chain with C180L, C202A, C242R, C291S, M294R

Substrate in one data set: pcPET (post-consumer)
The data set is described as follows: Proxy for plastic degradation [Released monomer concentration (HPLC/LC-MS) (TPA+MHET+BHET)]. To be noted: pH 9; 40 °C; 24 h.
As for B1, the “Proxy for plastic degradation” value amounted to 948 µM. The same measure, in the same setting: the result for B2 reads 405 µM; that for B3, 295 µM; that for B4, 620 µM. Still for that read-out and setting: the result for B5 reads 680 µM. The same measure, in the same setting: the result for B6 reads 1250 µM; that for B7, 520 µM; that for B8, 10 µM.

With B9, the “Proxy for plastic degradation” value worked out at 680 µM. The same measure, in the same setting: the result for B10 reads 560 µM; that for B11, 470 µM. Consider B12, for which the “Proxy for plastic degradation” value is 1080 µM. On the same count and under the same terms, the result for B13 reads 530 µM; that for B14, 590 µM. In the case of B15, the “Proxy for plastic degradation” value stood at 715 µM. Still for that read-out and setting: the result for B16 reads 310 µM.

Staying with this data set, now noted: pH 9; 60 °C; 6 h.
In the case of B1, the “Proxy for plastic degradation” value is 270 µM. As for B6, the “Proxy for plastic degradation” value worked out at 1560 µM. Same read-out and setting: the result for B12 reads 420 µM.
